Consider 7 molecules from US20170052184A1.

Where two headings read alike, the source gives them in different places.

The target in test [1] is bovine serum albumin (bovine) (UniProt P02769). The experiment in a line: EIA, BSA control.
Test [2] concerns the target bovine serum albumin (BSA) (bovine) (UniProt P02769). The test is described as follows: EIA, BSA background.
Test [3] has the same target. The experiment in a line: EIA, BSA background. The source holds these as a separate data set.

Chain of bovine serum albumin (BSA) (bovine) (P02769 25-607 limits assumed): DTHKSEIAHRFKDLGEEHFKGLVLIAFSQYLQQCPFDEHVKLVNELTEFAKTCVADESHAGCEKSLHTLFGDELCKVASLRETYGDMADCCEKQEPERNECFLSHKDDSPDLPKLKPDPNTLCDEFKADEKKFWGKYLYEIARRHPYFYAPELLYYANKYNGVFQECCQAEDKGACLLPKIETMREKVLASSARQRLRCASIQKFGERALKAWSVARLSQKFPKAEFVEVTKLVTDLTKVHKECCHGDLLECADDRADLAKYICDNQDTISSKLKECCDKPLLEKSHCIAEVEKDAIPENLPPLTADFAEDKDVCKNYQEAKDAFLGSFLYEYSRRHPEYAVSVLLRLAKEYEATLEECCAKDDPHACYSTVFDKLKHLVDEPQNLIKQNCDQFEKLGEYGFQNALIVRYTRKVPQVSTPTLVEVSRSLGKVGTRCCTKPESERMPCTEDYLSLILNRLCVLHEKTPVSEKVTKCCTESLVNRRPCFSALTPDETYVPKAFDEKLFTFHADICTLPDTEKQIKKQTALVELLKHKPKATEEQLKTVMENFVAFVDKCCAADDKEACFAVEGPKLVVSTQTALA
Chain of bovine serum albumin (bovine) (P02769 25-607 limits assumed): as above

B1: HCV 208B-178 (antibody, V domains shown)
VH: DVKLVESGGGLVKLGGSLKLSCAASGFTFSSYYMSWVRQTPEKRLELVAAINSNGGSTYYPDTVKGRFTISRDNAKNTLYLQMSSLKSEDTALYYCARHGGLGRRDWYFDVWGAGTTVTVSS
VL: DIVLTQSPASLAVSLGQRATISCRASESVDNYGISFMHWYQQKPGQPPKLLIYRASNLESGIPARFSGSGSRTDFTLTINPVETDDVATYYCQQSNKDPFTFGSGAKLEIKR
B1: the Reactivity (OD 492 nm) in test [1] turned out to be 0.07 OD units. Moreover, the OD (A492) in test [2] is 0.07 OD; in test [3], 0.08 OD.

B2: HCV 208B-793 (antibody, V domains shown)
VH: EVKLVESGGGLVQPGGSLKLSCAASGFTFSSYAMSWVRQTPERRLEWVTYISNGGGSTYYSDTVKGRFTFSRDNAKNTLYLQMSSLKSEDTAMYYCARHGLGRTGFASWGQGTLVTVSA
VL: DIVMTQSHKFMSTSVGDRVSITCKASQDVGTAVAWYQQKPGQSPKLLIYWASTRHTGVPDRFTGSGSGTDFTLTISNVQSEDLADYFCQQYSNYLTFGAGTKLEVKR
As to B2, the Reactivity (OD 492 nm) in test [1] was found to be 0.13 OD units. Further, the OD (A492) turned out to be 0.42 OD in test [2] and 0.2 OD in test [3].

B3: HCV 208B-353 (antibody, V domains shown)
VH: EVQLVESGGDLVKPGGSLKLSCAASGFTFNHYGMSWVRQPPDKRLEWVATISSGGGYTYYPDSVKGRFTISRDNAKDTLSLQMSSLRSGDTAVYYCASLYGSLFAYWGQGTLVTVSA
VL: DIVMTQSQKFMSTTVGDRVRVTCKASQNVGTAVAWYQQKPGQSPKLLIYSASNRYTGVPDRFTGSGSGTDFTLTITNMQSEDLADYFCQQYSTYPLTFGSGAKLEIKR
B3 had a Reactivity (OD 492 nm) in test [1] of 0.07 OD units. The values for the OD (A492) in test [2] and in test [3] were 0.06 OD and 0.1 OD, respectively.

B4: HCV 208B-327 (antibody, V domains shown)
VH: EVQLVESGGGLVKPGGSLKLSCAASGFTFSDSYMYWVRQTPDQRLEWVATISDGGSYTFYPDSVKGRFTISRDNAQNNLYLQMSSLKSEDTAMYYCASPHAGYFGWFAYWGRGTLVTVSA
VL: DIVMTQAAFSNPVTPGTSVSISCRSSKSLLHSNGITYLYWYLQKPGQSPQLLIYQMSKIASGVPDRFRSSGSGTDFTLRISRVEAADVGVYYCAQNLELPWTFGGGTKLEIKR
Regarding B4, the Reactivity (OD 492 nm) in test [1] amounted to 0.05 OD units. For the same molecule, the OD (A492) in test [2] was 0.08 OD; in test [3] it was 0.09 OD.

B5: HCV 208B-517 (antibody, V domains shown)
VH: QVQLKQSGPGLVQPSQSLSITCTVSGFSLITHGVHWVRQSPGKGLEWLGVIWSGGSTDYNAAFISRLSISKDTSKSQVFLKMSSLQADDTAIYYCARNGGATAFDYWGQGTTLTVSS
VL: DIVMTQSPATLSVTPGDRVSLSCRASQSISDYLHWYQQKSHESPRLLIKYASQSISGIPSRFRGSGSGSHFTLSINSVEPEDVGVYYCQNGHSFPWTFGGGTKLEIKR
B5 registered a Reactivity (OD 492 nm) in test [1] of 0.11 OD units. Also, the figures for the OD (A492) in test [2] and in test [3] were 0.07 OD and 0.12 OD, respectively.

B6: HCV 208B-515 (antibody, V domains shown)
VH: QVQLQQPGAELVKPGASLKLSCRASGYTFTSYWIHWVKQRPGQGLEWIGEIDPSDSYTNYNQKFKGKATLTVDKSSRAAYMQLSSLTSEDSAVYYCARHYYGVFDSWGQGTKLTVSS
VL: QIVFTQYPAIMSASLGERVTMTCTASSSVTSSYLHWFQQKPGSSPKLWIYSTSNPGSGVPARFSGRGSGTSYSLSISSMEAEDAATYYCLQFHRSPWTFGGGTKLEIRR
With B6, the Reactivity (OD 492 nm) in test [1] came to 0.06 OD units. For the same molecule, the OD (A492) in test [2] was determined as 0.07 OD; in test [3] it was 0.08 OD.

B7: HCV 208A-442 (antibody, V domains shown)
VH: DVQLQESGPGLVNPSQSLSLTCSVTGYSITSGYYWIWIRQFPGNKLEWMGYIKYDGGNNYSPSLKNRISIARDTSKNQFFLKLNSVTIEDTATYYCTRGSDSFDYWGQGTTLTVSS
VL: DIVLTQSPASLAVSLGQRAIISCKASQSVSFAGTNLMHWYQQKPGQQPKLLIYRASNLETGVPTRFSGSGSRTDFTLNIHPVEEDDAATYYCQQSREYYTFGGGTKLEIKR
As to B7, in test [1], the Reactivity (OD 492 nm) is 0.06 OD units. Besides, the figures for the OD (A492) in test [2] and in test [3] were 0.06 OD and 0.14 OD, respectively.
